Test results taken from publication PMC8567228 (EMBO Reports, 2021).
Changes are numbered by the printed parent chain. Numbers in names are those of the source. Values belong to the binder of their own block, whether it stands above or below them.

Legend:
[1] = target: T1, Rab8a phosphorylated at Thr72 (pRab8a) (human), P61006; experiment: cross-linking; DSBU 9.375 mM, 10 min at RT; 35 µM Rab8a and 28 µM PPM1H pre-incubated 1 h at 30°C in 40 mM HEPES pH 7.5, 150 mM NaCl, 2 mM MgCl2; SDS-PAGE, bands digested and read by LC MS/MS
T1 chain: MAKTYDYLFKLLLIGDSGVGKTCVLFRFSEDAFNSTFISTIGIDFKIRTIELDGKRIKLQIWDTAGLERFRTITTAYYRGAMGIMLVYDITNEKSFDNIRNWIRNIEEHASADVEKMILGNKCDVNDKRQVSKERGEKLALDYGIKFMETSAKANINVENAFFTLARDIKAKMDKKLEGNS

[2] = target: the molecule itself; experiment: crystal structure; vapour diffusion crystals, space group P212121, two molecules of PPM1H in the asymmetric unit; with Mg2+ (7kpr, 7l4j, 7l4i) or Mn2+ (7n0z)
[3] = target: T2, pThr73-Rab10 switch 2 phosphopeptide (human)
T2 sequence (peptide, phosphothreonine (T*) at Thr73): AGQERFHTITTSYYR

[4] = target: T3, pThr72-Rab8a switch 2 phosphopeptide (residues 65-79) (human)
T3 sequence (peptide, phosphothreonine (T*) at Thr72): AGQERFRTITTAYYR

[5] = target: Rab8a phosphorylated at Thr72 (pRab8a) (human) (UniProt P61006)
[6] = target: the molecule itself; experiment: SEC-MALS; His6-tagged proteins injected at 2 mg/ml (100 μl) into a Superdex 200 column; DAWN Heleos and Optilab TrEX detectors

stoichiometry N (PPM1H per pRab8a (2:2)) [1]: 1
B1: Recombinant PPM1H[D288A] used for DSBU cross-linking, Q9ULR3 1-514 (enzyme)
chain: SDLPLRFPYGRPEFLGLSQDEVECSADHIARPILILKETRRLPWATGYAEVINAGKSTHNEDQASCEVLTVKKKAGAVTSTPNRNSSKRRSSLPNGEGLQLKENSESEGVSCHYWSLFDGHAGSGAAVVASRLLQHHITEQLQDIVDILKNSAVLPPTCLGEEPENTPANSRTLTRAASLRGGVGAPGSPSTPPTRFFTEKKIPHECLVIGALESAFKEMDLQIERERSSYNISGGCTALIVICLLGKLYVANAGASRAIIIRNGEIIPMSSEFTPETERQRLQYLAFMQPHLLGNEFTHLEFPRRVQRKELGKKMLYRDFNMTGWAYKTIEDEDLKFPLIYGEGKKARVMATIGVTRGLGDHDLKVHDSNIYIKPFLSSAPEVRIYDLSKYDHGSDDVLILATDGLWDVLSNEEVAEAITQFLPNCDPDDPHRYTLAAQDLVMRARGVLKDRGWRISNDRLGSGDDISVYVIPLIHGNKLS
modifications: not checked

B2: PPM1H^DA (residues 33-514, D288A), crystallised form (enzyme, human, UniProt Q9ULR3 33-514, looked up)
chain: B1 chain
notes: PPM1H phosphatase, human, residues 33-514 with D288A (substrate-trapping mutant); Two molecules in the asymmetric unit; two Mg2+ ions at the active site; also called pNIC28-Bsa4-PPM1H^33-514 D288A; source: E. coli, purified (nickel agarose, TEV cleavage, second Ni column, Superdex 200)
binding result [2]: binds

initial rate of phosphate release (malachite green time course), 32 μM pThr73-Rab10 peptide, against wild-type PPM1H (fold reduction) [3]: > 20
initial rate of phosphate release (malachite green time course), 32 μM pThr72-Rab8a peptide, against wild-type PPM1H (fold reduction) [4]: > 20
initial rate of phosphate release (malachite green time course), 16 μM pThr72-Rab8a protein (GTPγS), against wild-type PPM1H (fold reduction) [5]: > 20
B3: His6-SUMO-PPM1H[K88A], full length (enzyme)
chain: MLTRVKSAVANFMGGIMAGSSGSEHGGGSCGGSDLPLRFPYGRPEFLGLSQDEVECSADHIARPILILKETRRLPWATGYAEVINAGASTHNEDQASCEVLTVKKKAGAVTSTPNRNSSKRRSSLPNGEGLQLKENSESEGVSCHYWSLFDGHAGSGAAVVASRLLQHHITEQLQDIVDILKNSAVLPPTCLGEEPENTPANSRTLTRAASLRGGVGAPGSPSTPPTRFFTEKKIPHECLVIGALESAFKEMDLQIERERSSYNISGGCTALIVICLLGKLYVANAGDSRAIIIRNGEIIPMSSEFTPETERQRLQYLAFMQPHLLGNEFTHLEFPRRVQRKELGKKMLYRDFNMTGWAYKTIEDEDLKFPLIYGEGKKARVMATIGVTRGLGDHDLKVHDSNIYIKPFLSSAPEVRIYDLSKYDHGSDDVLILATDGLWDVLSNEEVAEAITQFLPNCDPDDPHRYTLAAQDLVMRARGVLKDRGWRISNDRLGSGDDISVYVIPLIHGNKLS

initial activity of phosphate release (malachite green time course), 16 μM pThr72-Rab8a protein (GTPγS), against wild-type PPM1H (fold reduction) [5]: 2
B4: His6-SUMO-PPM1H[R338A], full length (enzyme)
chain: B3 chain with A88K, R338A

B5: PPM1H^DA-LD (residues 33-514, D288A, loop 188-226 replaced by GSGS, C56A), crystallised form (enzyme, human)
chain: SDLPLRFPYGRPEFLGLSQDEVEASADHIARPILILKETRRLPWATGYAEVINAGKSTHNEDQASCEVLTVKKKAGAVTSTPNRNSSKRRSSLPNGEGLQLKENSESEGVSCHYWSLFDGHAGSGAAVVASRLLQHHITEQLQDIVDILKNSAVLGSGSTRFFTEKKIPHECLVIGALESAFKEMDLQIERERSSYNISGGCTALIVICLLGKLYVANAGASRAIIIRNGEIIPMSSEFTPETERQRLQYLAFMQPHLLGNEFTHLEFPRRVQRKELGKKMLYRDFNMTGWAYKTIEDEDLKFPLIYGEGKKARVMATIGVTRGLGDHDLKVHDSNIYIKPFLSSAPEVRIYDLSKYDHGSDDVLILATDGLWDVLSNEEVAEAITQFLPNCDPDDPHRYTLAAQDLVMRARGVLKDRGWRISNDRLGSGDDISVYVIPLIHGNKLS
notes: PPM1H phosphatase, human, residues 33-187 with C56A; short linker that replaces the loop 188-226; PPM1H phosphatase, human, residues 227-514 with D288A; also called pET28a(+)-PPM1H^D288A LoopDEL; source: E. coli, purified (nickel agarose, TEV cleavage, second Ni column, Superdex 200); not shown: His6, N-terminal, cleaved
binding result [2]: binds

B6: His6-tagged PPM1H^WT-LD (residues 33-514, loop 188-226 replaced by GSGS, C56A) (enzyme, human)
chain: B5 chain with A221D
notes: PPM1H phosphatase, human, residues 33-187 with C56A; short linker that replaces the loop 188-226; PPM1H phosphatase, human, residues 227-514; Same construct as m2 but with the His6 tag kept for SEC-MALS (calculated about 52.1 kDa); source: E. coli, purified (Ni-agarose, Superdex 200); not shown: His6, N-terminal, kept
stoichiometry N [6]: 2
